Here are results for one molecule from article PMC4234684 (Cellular and molecular life sciences : CMLS, 2014).

The data set can be described thus: Michaelis–Menten kinetic analysis with colorimetric substrate nitrocefin. In kind it is biochemical. Conditions: PBS, 30 °C, mean ± SEM.

B1: Enterobacter chloacae P99 beta-lactamase (protein, UniProt P05364 21-381, looked up)
Beta-lactamase: TPVSEKQLAEVVANTITPLMKAQSVPGMAVAVIYQGKPHYYTFGKADIAANKPVTPQTLFELGSISKTFTGVLGGDAIARGEISLDDAVTRYWPQLTGKQWQGIRMLDLATYTAGGLPLQVPDEVTDNASLLRFYQNWQPQWKPGTTRLYANASIGLFGALAVKPSGMPYEQAMTTRVLKPLKLDHTWINVPKAEEAHYAWGYRDGKAVRVSPGMLDAQAYGVKTNVQDMANWVMANMAPENVADASLKQGIALAQSRYWRIGSMYQGLGWEMLNWPVEANTVVEGSDSKVALAPLPVAEVNPPAPPVKASWVHKTGSTGGFGSYVAFIPEKQIGIVMLANTSYPNPARVEAAYHILEALQ
modifications: C-terminal His6 tag
One may read the kcat/Km as the second-order rate constant that governs catalysis at low substrate concentration. For the molecule B1, the kcat/Km came out at 7.5e+06 ± 600000 M⁻¹ s⁻¹.
